# From patent publication US10927178B2, “Anti-CXCR4 antibodies and antibody-drug conjugates” (PFIZER INC., priority 2013, dated 2021)
# Experiments:
# [1] = biological target: T1, CXCR4 (CXCR4-expressing HPB-ALL cells) (Homo sapiens, UniProt P61073); test: Flow cytometry binding of humanized 3G10 Fabs to HPB-ALL cells (Example 2); settings: for MFI 0.25 μg/ml: Fab 0.25 μg/ml; for MFI 2.5 μg/ml: Fab 2.5 μg/ml
# T1 construct: endogenous in cells; host or cells: HPB-ALL (human T cell leukemia)
# Procedure: 150,000 cells were incubated with various h3G10 Fabs at either 2.5 or 0.25 μg/mL in 100 uL binding buffer (PBS+0.5% BSA), followed by incubation with APC-conjugated goat anti-human Fab-specific secondary antibody from R&D systems.
# [2] = biological target: T2, human CXCR4-enriched lipoparticles (Homo sapiens, UniProt P61073); test: Biosensor affinity measurement of Fabs on CXCR4-enriched lipoparticles; format: binding; settings: Fab; kinetic titration
# T2 construct: purchased Integral Molecular, Philadelphia Pa; LEV101
# Procedure: One way of determining binding affinity of antibodies to CXCR4 is by measuring binding affinity of monofunctional Fab fragments of the antibody. To obtain monofunctional Fab fragments, an antibody (for example, IgG) can be cleaved with papain or expressed recombinantly. […] Biotinylated WGA can be coated on the SA chip to facilitate capturing Lipoparticles containing CXCR4 proteins. […] J. Mol. Recognit. 12, 279-284 (1999).
# The concentrations of the Fab proteins are determined by ELISA and/or SDS-PAGE electrophoresis using a Fab of known concentration (as determined by amino acid analysis) as a standard. Kinetic association rates (kon) and dissociation rates (koff) are obtained simultaneously by fitting the data globally to a 1:1 Langmuir binding model (Karlsson, R. Roos, H. Fagerstam, L. Petersson, B. (1994). Methods Enzymology 6. 99-110) using the BIAevaluation program. Equilibrium dissociation constant (KD) values are calculated as koff/kon.
# The binding affinity of each Fab was determined using human CXCR4-enriched lipoparticles (LEV101, Integral Molecular, Philadelphia Pa.). Biotinylated WGA (Sigma Aldrich, St. Louis Mo.)) can be coated on the SA chip to facilitate capturing lipoparticles containing CXCR4 proteins. […] J. Mol. Recognit. 12, 279-284 (1999).
# T2 sequence (P61073 whole entry): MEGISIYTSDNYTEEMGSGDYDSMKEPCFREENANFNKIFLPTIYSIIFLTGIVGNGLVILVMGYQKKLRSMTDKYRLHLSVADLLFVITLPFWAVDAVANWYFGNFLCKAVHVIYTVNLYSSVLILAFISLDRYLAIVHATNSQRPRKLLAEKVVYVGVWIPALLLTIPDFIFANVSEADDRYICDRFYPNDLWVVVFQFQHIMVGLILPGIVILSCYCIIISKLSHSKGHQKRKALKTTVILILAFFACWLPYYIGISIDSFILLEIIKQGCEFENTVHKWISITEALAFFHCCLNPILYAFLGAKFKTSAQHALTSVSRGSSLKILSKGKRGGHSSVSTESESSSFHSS
# T1 sequence (P61073 whole entry): as above
Molecule,MFI 0.25 μg/ml [1],MFI 2.5 μg/ml [1],Ka (1/MS) [2],Kd [2]
"h3G10.A57 VH/h3G10.A11 VL: Fab; VH SEQ ID NO:23, VL A11 (probably A11A, SEQ ID NO:51) (antibody, V domains shown, Fab) VH: EVQLVESGGGLVQPGGSLRLSCAASGFTFSDYYMSWVRQAPGKGLEWVGFIRHKANFYTTEYSTSVKGRFTISRDDSKNSLYLQMNSLKTEDTAVYYCARDLPGFAYWGQGTLVTVSS VL: DIVMTQSPDSLAVSLGERATINCKSAQSLFNSRTRKNYLAWYQQKPGQPPKLLIYWASARESGVPDRFSGSGSGTDFTLTISSLQAEDVAVYYCKQSFRLRTFGGGTKVEIK",1251,4521,–,–
"h3G10.A57 VH/h3G10.B12 VL: Fab; VH SEQ ID NO:23, VL B12 (probably B12A, SEQ ID NO:61) (antibody, V domains shown, Fab) VH: EVQLVESGGGLVQPGGSLRLSCAASGFTFSDYYMSWVRQAPGKGLEWVGFIRHKANFYTTEYSTSVKGRFTISRDDSKNSLYLQMNSLKTEDTAVYYCARDLPGFAYWGQGTLVTVSS VL: DIVMTQSPDSLAVSLGERATINCKSSQSLFNSRTRKNYLLWYQQKPGQPPKLLIYWASARESGVPDRFSGSGSGTDFTLTISSLQAEDVAVYYCKQSFRLRTFGGGTKVEIK",2921,6830,–,–
"h3G10.A57 VH/h3G10.A58A VL: Fab; VH SEQ ID NO:23, VL SEQ ID NO:57 (antibody, V domains shown, Fab) VH: EVQLVESGGGLVQPGGSLRLSCAASGFTFSDYYMSWVRQAPGKGLEWVGFIRHKANFYTTEYSTSVKGRFTISRDDSKNSLYLQMNSLKTEDTAVYYCARDLPGFAYWGQGTLVTVSS VL: DIVMTQSPDSLAVSLGERATINCKSSQSLFNSHTRKNYLAWYQQKPGQPPKLLIYWASARGSGVPDRFSGSGSGTDFTLTISSLQAEDVAVYYCKQSFRLRTFGGGTKVEIK",–,–,1.60E+06 1/MS,0.00063 s⁻¹
"h3G10.A57 VH/h3G10 VL: Fab; VH SEQ ID NO:23, VL SEQ ID NO:47 (antibody, V domains shown, Fab) VH: EVQLVESGGGLVQPGGSLRLSCAASGFTFSDYYMSWVRQAPGKGLEWVGFIRHKANFYTTEYSTSVKGRFTISRDDSKNSLYLQMNSLKTEDTAVYYCARDLPGFAYWGQGTLVTVSS VL: DIVMTQSPDSLAVSLGERATINCKSSQSLFNSRTRKNYLAWYQQKPGQPPKLLIYWASARESGVPDRFSGSGSGTDFTLTISSLQAEDVAVYYCKQSFNLRTFGGGTKVEIK",–,–,1.17E+06 1/MS,0.00143 s⁻¹
"h3G10.B44 VH/h3G10.2.72 VL: Fab; VH SEQ ID NO:25, VL SEQ ID NO:49 (antibody, V domains shown, Fab) VH: EVQLVESGGGLVQPGGSLRLSCAASGFTFSDYYMSWVRQAPGKGLEWVSFIRHKANFYTTEYSTSVKGRFTISRDNSKNTLYLQMNSLRAEDTAVYYCAKDLPGFAYWGQGTLVTVSS VL: DIVMTQSPDSLAVSLGERATINCKSSQSLFNSRTRKNYLAWYQQKPGQPPKLLIYWASARESGVPDRFSGSGSGTDFTLTISSLQAEDVAVYYCKQSFRLRTFGGGTKVEIK",4513,8908,–,–
"h3G10.1.91 VH/h3G10.A58A VL: Fab; VH SEQ ID NO:33, VL SEQ ID NO:57 (antibody, V domains shown, Fab) VH: EVQLVESGGGLVQPGGSLRLSCAASGFTFSDYYMSWVRQAPGKGLEWVGFIRHKANFETTEYSTSVKGRFTISRDDSKNSLYLQMNSLKTEDTAVYYCARDLPGFAYWGQGTLVTVSS VL: DIVMTQSPDSLAVSLGERATINCKSSQSLFNSHTRKNYLAWYQQKPGQPPKLLIYWASARGSGVPDRFSGSGSGTDFTLTISSLQAEDVAVYYCKQSFRLRTFGGGTKVEIK",–,–,9.08E+05 1/MS,0.000341 s⁻¹
"h3G10.A57 VH/h3G10.A58B VL: Fab; VH SEQ ID NO:23, VL SEQ ID NO:73 (antibody, V domains shown, Fab) VH: EVQLVESGGGLVQPGGSLRLSCAASGFTFSDYYMSWVRQAPGKGLEWVGFIRHKANFYTTEYSTSVKGRFTISRDDSKNSLYLQMNSLKTEDTAVYYCARDLPGFAYWGQGTLVTVSS VL: DIVMTQSPDSLAVSLGERATINCKSSQSLFNSHTRKNYLAWYQQKPGQPPKLLIYWASARGSGVPDRFSGSGSGTDFTLTISSLQAEDVAVYYCKQSFNLRTFGGGTKVEIK",–,–,6.88E+05 1/MS,0.000515 s⁻¹
"h3G10.1.91 VH/h3G10.A58B VL: Fab; VH SEQ ID NO:33, VL SEQ ID NO:73 (antibody, V domains shown, Fab) VH: EVQLVESGGGLVQPGGSLRLSCAASGFTFSDYYMSWVRQAPGKGLEWVGFIRHKANFETTEYSTSVKGRFTISRDDSKNSLYLQMNSLKTEDTAVYYCARDLPGFAYWGQGTLVTVSS VL: DIVMTQSPDSLAVSLGERATINCKSSQSLFNSHTRKNYLAWYQQKPGQPPKLLIYWASARGSGVPDRFSGSGSGTDFTLTISSLQAEDVAVYYCKQSFNLRTFGGGTKVEIK",–,–,8.03E+05 1/MS,0.000286 s⁻¹
"h3G10.A57 VH/h3G10.2.72 VL: Fab; VH SEQ ID NO:23, VL SEQ ID NO:49 (antibody, V domains shown, Fab) VH: EVQLVESGGGLVQPGGSLRLSCAASGFTFSDYYMSWVRQAPGKGLEWVGFIRHKANFYTTEYSTSVKGRFTISRDDSKNSLYLQMNSLKTEDTAVYYCARDLPGFAYWGQGTLVTVSS VL: DIVMTQSPDSLAVSLGERATINCKSSQSLFNSRTRKNYLAWYQQKPGQPPKLLIYWASARESGVPDRFSGSGSGTDFTLTISSLQAEDVAVYYCKQSFRLRTFGGGTKVEIK",–,–,1.10E+06 1/MS,0.0013 s⁻¹
"h3G10.2.37 VH/h3G10.A58A VL: Fab; VH SEQ ID NO:35, VL SEQ ID NO:57 (antibody, V domains shown, Fab) VH: EVQLVESGGGLVQPGGSLRLSCAASGFTFSDYYMSWVRQAPGKGLEWVGFIRHKANFYTREYSTSVKGRFTISRDDSKNSLYLQMNSLKTEDTAVYYCARDLPGFAYWGQGTLVTVSS VL: DIVMTQSPDSLAVSLGERATINCKSSQSLFNSHTRKNYLAWYQQKPGQPPKLLIYWASARGSGVPDRFSGSGSGTDFTLTISSLQAEDVAVYYCKQSFRLRTFGGGTKVEIK",–,–,1.29E+06 1/MS,0.000418 s⁻¹
"h3G10.2.37 VH/h3G10.2.72 VL: Fab; VH SEQ ID NO:35, VL SEQ ID NO:49 (antibody, V domains shown, Fab) VH: EVQLVESGGGLVQPGGSLRLSCAASGFTFSDYYMSWVRQAPGKGLEWVGFIRHKANFYTREYSTSVKGRFTISRDDSKNSLYLQMNSLKTEDTAVYYCARDLPGFAYWGQGTLVTVSS VL: DIVMTQSPDSLAVSLGERATINCKSSQSLFNSRTRKNYLAWYQQKPGQPPKLLIYWASARESGVPDRFSGSGSGTDFTLTISSLQAEDVAVYYCKQSFRLRTFGGGTKVEIK",–,–,2.30E+06 1/MS,0.0008 s⁻¹
"h3G10.1.91 VH/h3G10.2.72 VL: Fab; VH SEQ ID NO:33, VL SEQ ID NO:49 (antibody, V domains shown, Fab) VH: EVQLVESGGGLVQPGGSLRLSCAASGFTFSDYYMSWVRQAPGKGLEWVGFIRHKANFETTEYSTSVKGRFTISRDDSKNSLYLQMNSLKTEDTAVYYCARDLPGFAYWGQGTLVTVSS VL: DIVMTQSPDSLAVSLGERATINCKSSQSLFNSRTRKNYLAWYQQKPGQPPKLLIYWASARESGVPDRFSGSGSGTDFTLTISSLQAEDVAVYYCKQSFRLRTFGGGTKVEIK",–,–,1.50E+06 1/MS,0.00049 s⁻¹
"h3G10.2.37 VH/h3G10.A58B VL: Fab; VH SEQ ID NO:35, VL SEQ ID NO:73 (antibody, V domains shown, Fab) VH: EVQLVESGGGLVQPGGSLRLSCAASGFTFSDYYMSWVRQAPGKGLEWVGFIRHKANFYTREYSTSVKGRFTISRDDSKNSLYLQMNSLKTEDTAVYYCARDLPGFAYWGQGTLVTVSS VL: DIVMTQSPDSLAVSLGERATINCKSSQSLFNSHTRKNYLAWYQQKPGQPPKLLIYWASARGSGVPDRFSGSGSGTDFTLTISSLQAEDVAVYYCKQSFNLRTFGGGTKVEIK",–,–,7.97E+05 1/MS,0.000449 s⁻¹
"h3G10 VH/h3G10 VL: Fab; VH SEQ ID NO:21, VL SEQ ID NO:47 (antibody, V domains shown, Fab) VH: EVQLVESGGGLVQPGGSLRLSCAASGFTFSDYYMSWVRQAPGKGLEWVGFIRHKANGYTTEYSTSVKGRFTISRDDSKNSLYLQMNSLKTEDTAVYYCARDLPGFAYWGQGTLVTVSS VL: DIVMTQSPDSLAVSLGERATINCKSSQSLFNSRTRKNYLAWYQQKPGQPPKLLIYWASARESGVPDRFSGSGSGTDFTLTISSLQAEDVAVYYCKQSFNLRTFGGGTKVEIK",–,–,1.60E+06 1/MS,0.003 s⁻¹
